Results reported in the nanobody polyreactivity screen of Harvey et al. (2022).

Experiment: yeast display, Sf9 membrane polyspecificity reagent, FACS + sequencing; frameworks hold sequencing errors
Summary of the method: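 Nanobodies came from a synthetic yeast display library in Saccharomyces cerevisiae BJ5465, induced with galactose for 36–48 hours and stained for 1 hour at 4 °C with 10% biotinylated, detergent-solubilized Sf9 membrane reagent. Cells were enriched on streptavidin microbeads and then FACS-sorted, with low and high (top ~1%) gates set on anti-HA fluorescence for expression and streptavidin fluorescence for reagent binding. Each polyreactivity label reflects the gate a clone came from. Genes were amplified by colony PCR, sequenced by MiSeq 2 × 250 and filtered by CDR length.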

Row | Sequence | polyreactivity (PSR sort gate)
1 | QVQLVESGGGLVQAGGSLRLSCAASGRTFQSNARGRARQAPGKETELVATISSDGSTYYADSVKGRFTISRDNAKNTVYLQMNSLKPEDTAVYYCAADSHPASTIGVRLDSWGQGTQVTVSS | low polyreactivity
2 | QVQLVESGGGLVQAGGSLRLSCAASGRTFQTNVMGWYRQAPGEERELVAAITLSGGSTNYADSVKGRFSISRDNAMYTVYLQMNSLKPEDTAVYYCNAERRYRHQWTPHYEYDYWGQGTQVTVSS | low polyreactivity
3 | QVQLVESGGGLVQAGGSLRLSCAASGRTFQVYAMGWYRQAPGKERELVAAISLTGGGTYYADSVKGRFTISRDNAKNTVYLQMNSLKPEDTEVYYCAVRRRTHLGFLYEYWGQGTQVTVSS | high polyreactivity
4 | QVQLVESGGGLVQAGGSLRLSCAASGRTFRANAMGWSRQAAGKERELVAAITWDGGSTYYADSVKGRFTISRDNAKNTVYLQMNSLKPEDTAVYYCAAESWFLRWYRYDYWGQGTQVTVSS | low polyreactivity
5 | QVQLVESGGGLVQAGGSLRLSCAASGRTFRANAMGWYRQAPGKERELFAAISYSGGRTRYADSVKGRFTISRDNAKNTVYLQMNSLKPEDTAVYYCNRVIPTQSLRDAPGLHQVGYWGQGTQVTVSS | high polyreactivity
6 | QVQLVESGGGLVQAGGSLRLSCAASGRTFRANTMGWYRQAPGKERELVAAISDRGGSTYYADSVKGRFTISRDNAKNTVYLQMNSLKPEDTAVYYCAARNTPAQLDYWGQGTQVTVSS | low polyreactivity
7 | QVQLVESGGGLVQAGGSLRLSCAASGRTFRAYAMGWYRQAPGKERELVAAISGTGDRTYYADSVKGRFTISRDYAKNTVYLQMNSLKPEDTAVYYCAVSYSYRYYYWGQGTQVTVSS | high polyreactivity
8 | QVQLVESGGGLVQAGGSLRLSCAASGRTFRAYAMGWYRQAPGKERELVAAITSGGSTKYADSVKGRFTITRDNAKNTVYLLMNSLKPEDTAVYYCAAVWYGYYSFDTYGYWGQGTQVTVSS | high polyreactivity
9 | QVQLVESGGGLVQAGGSLRLSCAASGRTFRAYAMGWYRQAPGKERELVARISWSGGNTYYADSVKGRFTISRDNAKNTVYLQMNSLKPEDTAVYYCAKTYYPYPAQIYTGYSWGQGTQVTVSS | low polyreactivity
10 | QVQLVESGGGLVQAGGSLRLSCAASGRTFRAYTMGWYRQAPGKERELVAAISTPGGSTYYADSVKGRFTISRDNAKNTVYLQMNSLKPEDTAVYYCAAGTFYYWLSYDYWGQGTQVTVSS | low polyreactivity
11 | QVQLVESGGGLVQAGGSLRLSCAASGRTFRDNVMGWYRQAPGKERELVAAITWSSGSTHYADSVKGRFTISRDNAKNTVYLQMNSLKPEDTAVYYCAQKYGARTKYWEGWNVRYDYWGQGTQVTVSS | low polyreactivity
12 | QVQLVESGGGLVQAGGSLRLSCAASGRTFRDYVMGWYRQAPGKERELVAVISYRGSTYYADSVKGRFTISRDNAKNTVYLQMNSVKPEDTAVYYCAGRFSLEGGYYWGQGTQVTVSS | low polyreactivity
13 | QVQLVESGGGLVQAGGSLRLSCAASGRTFRENAMGWYRQAPGKERELVAAAISSGDGTNYADSVKGRFTISRDNAKNTVYLQMNSLKPEDTAVYYCAADGPRDSYDYWGQGTQVTVSS | low polyreactivity
14 | QVQLVESGGGLVQAGGSLRLSCAASGRTFRENAMGWYRQAPGKERELVAAIRRSGGRTYYADSVKGRFTISRDNAKNTVYLQMNSLKPEDTAVYYCNAVADGYAFRRPYVTYYYWGQGTQVTVSS | low polyreactivity
15 | QVQLVESGGGLVQAGGSLRLSCAASGRTFRFNAMGWYRPAPGKEREFVAAITSGGGTYYADSVKGRFTISRDNAKNTVYLQMNSLKPEDTAVYYCATVGIVHHRLVAMDYWGQGTQVTVSS | low polyreactivity
16 | QVQLVESGGGLVQAGGSLRLSCAASGRTFRFNAMGWYRQAPGKEMELVAAISSGGRTYYADSVKGRFTISRDNAKNTVYLQMNSLKPEDTAVYYCAARVFVRHPHQVAYDYWGQGTQVTVSS | high polyreactivity
17 | QVQLVESGGGLVQAGGSLRLSCAASGRTFRFYAMGWYRQAPGKEREFVAAISRSVGSTYYADSVKGRFTISRDNAKNTVDLQMNSLKPEDTAVYYCNADYRSRYVEYDYWGQGTQVTVSS | high polyreactivity
18 | QVQLVESGGGLVQAGGSLRLSCAASGRTFRFYTMGWYRQAPGKERELVAAIYWRGSSTYYADSVKGRFTISRDNAKNTVYLQMNSLKPEDTAVYYFAKKSYANEYDYWGQGTQVTVSS | high polyreactivity
19 | QVQLVESGGGLVQAGGSLRLSCAASGRTFRGNDMGWYRQAPGKERELVATITRNGGSTRYADSVKGRFTISRDNAKNTVYLQMNSLKPEDTAVYYCNARSRYFGYDYWGQGTQVTVSS | high polyreactivity
20 | QVQLVESGGGLVQAGGSLRLSCAASGRTFRGYAMGWSRQAHGKEREFVATISSRGGSTYYADSVKGSFTISRDNAKHTVYLQMNSLKPEDTAVYYCAAKRRAKTGYRYDYWGQGTQVTLSS | high polyreactivity

Row | Sequence | polyreactivity (PSR sort gate)
21 | QVQLVESGGGLVQAGGSLRLSCAASGRTFRGYAMGWYRQAPGKERELVATISSRGGSTYYADSVKGRFTISRDNAKNTVYLQMNSLKPEDTAVYYCAARYIGYSSYKYDYWGQGTQVTVSS | high polyreactivity
22 | QVQLVESGGGLVQAGGSLRLSCAASGRTFRGYVMGWYRQAPGKERELVAAISKSGGSTYYADSVKGRFTISRDNAKNTVYLQMNSLKPEDTAVYYCSKNYRYSVFYDGFDYWGQGTQVTVSS | low polyreactivity
23 | QVQLVESGGGLVQAGGSLRLSCAASGRTFRINTMGWYRQAPGKERELVATITGSGGSTYYADSVKGRFTISRDNAKNTVYLQMNSLKPEDTAVYYCAVRWYDQVSRRGIGYYWGQGTQVTVSS | low polyreactivity
24 | QVQLVESGGGLVQAGGSLRLSCAASGRTFRIYAMGWYRQAPGKERELVAAINSGGTTNYADSVKGRFTISRDNAKNTVYLQMISLKPEDTAVYYCAVRYSKTLSHFSYDYWGQGTQLTVSS | low polyreactivity
25 | QVQLVESGGGLVQAGGSLRLSCAASGRTFRIYAMGWYRQAPGKERELVAAITKRGGITYYADSVKGRFTISRDNAKNTVYFQMNSLKPEDTAVYYCNKLPEPYDYDYWGQGTQVTVSS | high polyreactivity
26 | QVQLVESGGGLVQAGGSLRLSCAASGRTFRIYAVGWYRQAPGKERELVATIDSGGSTNYADSVKGRFTISRDNAKNTVYLQMNSLKPVDTAVYYCNAEDKPWYYLAGQAEYDSWGQGTQVTVSS | low polyreactivity
27 | QVQLVESGGGLVQAGGSLRLSCAASGRTFRIYSMGWYRQAPGKEREFVAGITRSDGSTYYADSVKGRFTISRDNAKNTVYLQMNSLKPEDTAVYYCNVEPYSHYRRTEDYWGQGTQVTVSS | high polyreactivity
28 | QVQLVESGGGLVQAGGSLRLSCAASGRTFRKYAMGWYRQAPGKERELVAAISWSGGSTYYANSVKGRFTISRDNAKNTVYLPMNSLKPVDTAVYYCAAVPVHTGSLYWGFTTGYDYWGQGTQVTVSS | low polyreactivity
29 | QVQLVESGGGLVQAGGSLRLSCAASGRTFRKYAMGWYRQAPGTERELVAAISWSGGSTYYANSVKGRFTISRDNAKNTVYLQMNSLKPEDTAVYYGAAVPVHNGSLYWGFTTGYDYWGQGTQVTVSS | low polyreactivity
30 | QVQLVESGGGLVQAGGSLRLSCAASGRTFRLNAMGWYRQAPGKERELVAAITRGGRTNYADSVKGRFTISRDNAKNTVYLQMNSLKPEDTAVYYCAARYVERHTDYYYWGQGTQVTVSS | low polyreactivity
31 | QVQLVESGGGLVQAGGSLRLSCAASGRTFRLYAMGWYRQAPGKERELVAAITENGGSTYYADSVKGRFTISRDNAKNTVYLQMTSLKPEDTAVYYCAAKRYSRYNYWGQCTQVTVSS | high polyreactivity
32 | QVQLVESGGGLVQAGGSLRLSCAASGRTFRLYAMGWYRQAPGKERELVAAITRGGRTNYADSVKGRFTISRDNAKNTVYLQMNSLKPEDTAVYYCAARYVEGHPDYYYWGQGTQVTVSS | low polyreactivity
33 | QVQLVESGGGLVQAGGSLRLSCAASGRTFRLYAMGWYRQAPGKERELVAAITRGGRTNYADSVKGRFTISRDNAKNTVYLQMNSLNPEDTAVYYCAARYVERHTDYYYWGQGTQVTVSS | low polyreactivity
34 | QVQLVESGGGLVQAGGSLRLSCAASGRTFRLYAMGWYRQAPGKERELVASISRSVGSTYYADSVKGRFTISRDNAKNTVYLQMNSLKPEDTAVYYCAARSYIPGGWDGAYYYWGQGTQVTVSS | high polyreactivity
35 | QVQLVESGGGLVQAGGSLRLSCAASGRTFRLYAMGWYRQATGTETELVAAISSRGGSTYYADSVKGRFTISRDNAKNTVYLQMNSLKPEDTAVYYCAKGLGSGQEIYGYDYWGQGTQVTVSS | high polyreactivity
36 | QVQLVESGGGLVQAGGSLRLSCAASGRTFRNAMGWYRQAPGKEREFVATITWSGGSTYYADSVKGRFTISRDNAKNTVYLQMNSLKPEDTAVYYCAAEGRLWDWQRYDYWGQGTQVTVSS | low polyreactivity
37 | QVQLVESGGGLVQAGGSLRLSCAASGRTFRNAMGWYRQEPVKEREFVATITWSGGSTYYADSVKGRFTISRDNAKNTVYLQMNSLKPEDTAVYYCAAEGRLWDWQRYDYWGQGTQVTVSS | low polyreactivity
38 | QVQLVESGGGLVQAGGSLRLSCAASGRTFRPNAMGWYRQAPGKERELVASITRRGGTTYYADSVKGRFTISRDNAKNTVYLQMYSLKPEDSAVYYCNAPPGYSSTRNGYWGQGTQVTVSS | high polyreactivity
39 | QVQLVESGGGLVQAGGSLRLSCAASGRTFRPYAMGWYRQAPGKEREFVARITWSGGTTYYADSVKGRFTISRDNAKNTVYLQMNSLKPEDTAVYYCAARVSRQTPLISYNYWGQGTQVTVSS | low polyreactivity
40 | QVQLVESGGGLVQAGGSLRLSCAASGRTFRPYAMGWYRQAPGKERELVAAIDSSGTSTYYADSVKGRFTISRDNAKNTVYLQMNSLKPEDTAVYYCNTSLKRRRLRFNYWGQGTQVTVSS | low polyreactivity
